B1: Enoblituzumab (antibody, human IgG1, kappa, V domains shown)
VH: EVQLVESGGGLVQPGGSLRLSCAASGFTFSSFGMHWVRQAPGKGLEWVAYISSDSSAIYYADTVKGRFTISRDNAKNSLYLQMNSLRDEDTAVYYCGRGRENIYYGSRLDYWGQGTTVTVSS
VL: DIQLTQSPSFLSASVGDRVTITCKASQNVDTNVAWYQQKPGKAPKALIYSASYRYSGVPSRFSGSGSGTDFTLTISSLQPEDFATYYCQQYNNYPFTFGQGTKLEIKR
B2: 10D7 (antibody, human IgG1, kappa, V domains shown)
VH: QVQLVQSGPGLVKPSETLSLTCTVSGGSISRSSYYWGWIRQPPGKGLEWIGNIFYAGSTYYNPSLKSRVTISVDTSKNQFSLKLSSVTAADTAVYYCARRITGTTGWFDPWGQGTLVTVSS
VL: DIQLTQSPSSLSASVGDRVTITCRASQGIRNDLGWYQQKPGKAPKLLIYAASTLQSGVPSRFSGSGSGTDFTLTISSLQPEDFATYYCLQDYNYPRTFGQGTKVEIKR
B3: 6B5 (antibody, human IgG1, kappa, V domains shown)
VH: QVQLVESGPGLVKPSQTLSLTCTVSDGSISSGGYYWSWIRQHPGKGLEWIGYIYYSGGTYYSPSLKSRVTISVDTSKNQFSLKLTSVTAADTAVYYCARRAGYSSSFDSWGQGILVTVSS
VL: EIVLTQSPLSLPVTPGEPASISCRSSQSLLYSNGYTYLDWYLQKPGQSPQFLIYLGFNRASGVPDRFSGSGSGTDFTLKISRVEAEDVGVYYCMQGLQTPYTFGQGTKLEIKR
B4: 6B5-Mut (antibody, human IgG1, kappa)
heavy: QVQLVESGPGLVKPSQTLSLTCTVSDGSISSGGYYWSWIRQHPGKGLEWIGYIYYSGGTYYSPSLKSRVTISVDTSKNQFSLKLTSVTAADTAVYYCARRAGYSSSFDSWGQGILVTVSSASTKGPSVFPLAPSSKSTSGGTAALGCLVKDYFPEPVTVSWNSGALTSGVHTFPAVLQSSGLYSLSSVVTVPSSSLGTQTYICNVNHKPSNTKVDKRVEPKSCDKTHTCPPCPAPELVGGPSVFLLPPKPKDTLMISRTPEVTCVVVDVSHEDPEVKFNWYVDGVEVHNAKTKPPEEQYNSTLRVVSVLTVLHQDWLNGKEYKCKVSNKALPAPIEKTISKAKGQPREPQVYTLPPSREEMTKNQVSLTCLVKGFYPSDIAVEWESNGQPENNYKTTPLVLDSDGSFFLYSKLTVDKSRWQQGNVFSCSVMHEALHNHYTQKSLSLSPGK
light: EIVLTQSPLSLPVTPGEPASISCRSSQSLLYSNGYTYLDWYLQKPGQSPQFLIYLGFNRASGVPDRFSGSGSGTDFTLKISRVEAEDVGVYYCMQGLQTPYTFGQGTKLEIKRTVAAPSVFIFPPSDEQLKSGTASVVCLLNNFYPREAKVQWKVDNALQSGNSQESVTEQDSKDSTYSLSSTLTLSKADYEKHKVYACEVTHQGLSSPVTKSFNRGEC
B5: 10D7-Mut (antibody, human IgG1, kappa)
heavy: QVQLVQSGPGLVKPSETLSLTCTVSGGSISRSSYYWGWIRQPPGKGLEWIGNIFYAGSTYYNPSLKSRVTISVDTSKNQFSLKLSSVTAADTAVYYCARRITGTTGWFDPWGQGTLVTVSSASTKGPSVFPLAPSSKSTSGGTAALGCLVKDYFPEPVTVSWNSGALTSGVHTFPAVLQSSGLYSLSSVVTVPSSSLGTQTYICNVNHKPSNTKVDKRVEPKSCDKTHTCPPCPAPELVGGPSVFLLPPKPKDTLMISRTPEVTCVVVDVSHEDPEVKFNWYVDGVEVHNAKTKPPEEQYNSTLRVVSVLTVLHQDWLNGKEYKCKVSNKALPAPIEKTISKAKGQPREPQVYTLPPSREEMTKNQVSLTCLVKGFYPSDIAVEWESNGQPENNYKTTPLVLDSDGSFFLYSKLTVDKSRWQQGNVFSCSVMHEALHNHYTQKSLSLSPGK
light: DIQLTQSPSSLSASVGDRVTITCRASQGIRNDLGWYQQKPGKAPKLLIYAASTLQSGVPSRFSGSGSGTDFTLTISSLQPEDFATYYCLQDYNYPRTFGQGTKVEIKRTVAAPSVFIFPPSDEQLKSGTASVVCLLNNFYPREAKVQWKVDNALQSGNSQESVTEQDSKDSTYSLSSTLTLSKADYEKHKVYACEVTHQGLSSPVTKSFNRGEC

Columns and labels:
[1] = target: human B7-H3 on B7-H3+ cells (human) (UniProt Q5ZPR3); assay: FACS, NCI-H520 cells (B7-H3+ tumor cells)
Chain of human B7-H3 on B7-H3+ cells (human) (Q5ZPR3 29-534): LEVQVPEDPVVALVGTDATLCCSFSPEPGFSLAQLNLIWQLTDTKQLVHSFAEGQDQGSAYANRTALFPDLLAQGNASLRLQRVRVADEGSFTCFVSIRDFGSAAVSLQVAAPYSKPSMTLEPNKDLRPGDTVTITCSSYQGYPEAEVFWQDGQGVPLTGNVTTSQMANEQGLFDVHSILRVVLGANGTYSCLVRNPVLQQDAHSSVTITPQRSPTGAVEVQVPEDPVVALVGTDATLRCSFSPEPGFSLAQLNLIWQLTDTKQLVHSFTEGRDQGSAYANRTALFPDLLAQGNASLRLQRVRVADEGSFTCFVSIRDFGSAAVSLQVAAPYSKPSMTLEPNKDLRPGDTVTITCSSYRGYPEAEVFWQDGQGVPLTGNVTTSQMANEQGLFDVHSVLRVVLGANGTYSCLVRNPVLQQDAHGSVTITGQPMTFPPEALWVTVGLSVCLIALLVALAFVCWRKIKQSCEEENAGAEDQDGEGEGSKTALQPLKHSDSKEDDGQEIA

[2] = target: human B7-H3 on B7-H3+ cells (human) (UniProt Q5ZPR3); assay: FACS, human dermal fibroblasts (B7-H3+ normal cells)
[3] = target: human B7-H3 on B7-H3+ cells (human) (UniProt Q5ZPR3); assay: FACS, human prostate smooth muscle cells (B7-H3+ normal cells)
[4] = target: human B7-H3 on B7-H3+ cells (human) (UniProt Q5ZPR3); assay: FACS, mature human dendritic cells derived from PBMC (B7-H3+ normal cells)
[5] = target: human B7-H3 on B7-H3+ cells (human) (UniProt Q5ZPR3); assay: FACS, HepG2 cells (B7-H3+ tumor cells)
[6] = target: human B7-H3 on B7-H3+ cells (human) (UniProt Q5ZPR3); assay: FACS, SK-OV-3 cells (B7-H3+ tumor cells)
[7] = target: human B7-H3 on B7-H3+ cells (human) (UniProt Q5ZPR3); assay: FACS, HUVEC cells (human B7-H3-expressing)
[8] = target: human B7-H3 on B7-H3+ cells (human) (UniProt Q5ZPR3); assay: FACS, NCI-H520 cells (B7-H3+ tumor cells) [Continued) D]
[9] = target: human B7-H3 on B7-H3+ cells (human) (UniProt Q5ZPR3); assay: FACS, A549 cells (B7-H3+ tumor cells)
[10] = target: human B7-H3 on B7-H3+ cells (human) (UniProt Q5ZPR3); assay: FACS, MCF-7 cells (B7-H3+ tumor cells)
[11] = target: human B7-H3 on B7-H3+ cells (human) (UniProt Q5ZPR3); assay: FACS, NCI-H520 cells (B7-H3+ tumor cells) [Continued) C]

| EC50 (read off the curve) [1] | EC50 (read off the curve) [2] | EC50 (read off the curve) [3] | EC50 (read off the curve) [4] | EC50 (read off the curve) [5] | EC50 (read off the curve) [6] | EC50 (read off the curve) [7] | EC50 (read off the curve) [8] | EC50 (read off the curve) [9] | EC50 (read off the curve) [10] | EC50 (read off the curve) [11] | Binder |
| --- | --- | --- | --- | --- | --- | --- | --- | --- | --- | --- | --- |
| 0.3 µg/mL | 0.2 µg/mL | 0.1 µg/mL | 0.3 µg/mL |  |  |  |  |  |  |  | B1 |
| 0.3 µg/mL |  |  | 0.06 µg/mL | 0.4 µg/mL | 0.7 µg/mL | 0.05 µg/mL | 0.03 µg/mL |  |  |  | B2 |
| 0.3 µg/mL | 0.4 µg/mL | 0.3 µg/mL | 1 µg/mL | 0.6 µg/mL | 0.7 µg/mL | 0.4 µg/mL |  | 2 µg/mL | 0.4 µg/mL | 0.1 µg/mL | B3 |
|  |  |  |  |  |  | 0.4 µg/mL |  |  |  | 0.2 µg/mL | B4 |
|  |  |  |  |  |  | 0.05 µg/mL | 0.03 µg/mL |  |  |  | B5 |

Source: US20260125477A1
